# According to IntAct's records for PubMed 25040622:
# B1: Proline-serine-threonine phosphatase-interacting protein 1 (Homo sapiens), O43586 (parent)
# chain: MMPQLQFKDAFWCRDFTAHTGYEVLLQRLLDGRKMCKDMEELLRQRAQAEERYGKELVQIARKAGGQTEINSLRASFDSLKQQMENVGSSHIQLALTLREELRSLEEFRERQKEQRKKYEAVMDRVQKSKLSLYKKAMESKKTYEQKCRDADDAEQAFERISANGHQKQVEKSQNKARQCKDSATEAERVYRQSIAQLEKVRAEWEQEHRTTCEAFQLQEFDRLTILRNALWVHSNQLSMQCVKDDELYEEVRLTLEGCSIDADIDSFIQAKSTGTEPPAPVPYQNYYDREVTPLTSSPGIQPSCGMIKRFSGLLHGSPKTTSLAASAASTETLTPTPERNEGVYTAIAVQEIQGNPASPAQEYRALYDYTAQNPDELDLSAGDILEVILEGEDGWWTVERNGQRGFVPGSYLEKL
# partner: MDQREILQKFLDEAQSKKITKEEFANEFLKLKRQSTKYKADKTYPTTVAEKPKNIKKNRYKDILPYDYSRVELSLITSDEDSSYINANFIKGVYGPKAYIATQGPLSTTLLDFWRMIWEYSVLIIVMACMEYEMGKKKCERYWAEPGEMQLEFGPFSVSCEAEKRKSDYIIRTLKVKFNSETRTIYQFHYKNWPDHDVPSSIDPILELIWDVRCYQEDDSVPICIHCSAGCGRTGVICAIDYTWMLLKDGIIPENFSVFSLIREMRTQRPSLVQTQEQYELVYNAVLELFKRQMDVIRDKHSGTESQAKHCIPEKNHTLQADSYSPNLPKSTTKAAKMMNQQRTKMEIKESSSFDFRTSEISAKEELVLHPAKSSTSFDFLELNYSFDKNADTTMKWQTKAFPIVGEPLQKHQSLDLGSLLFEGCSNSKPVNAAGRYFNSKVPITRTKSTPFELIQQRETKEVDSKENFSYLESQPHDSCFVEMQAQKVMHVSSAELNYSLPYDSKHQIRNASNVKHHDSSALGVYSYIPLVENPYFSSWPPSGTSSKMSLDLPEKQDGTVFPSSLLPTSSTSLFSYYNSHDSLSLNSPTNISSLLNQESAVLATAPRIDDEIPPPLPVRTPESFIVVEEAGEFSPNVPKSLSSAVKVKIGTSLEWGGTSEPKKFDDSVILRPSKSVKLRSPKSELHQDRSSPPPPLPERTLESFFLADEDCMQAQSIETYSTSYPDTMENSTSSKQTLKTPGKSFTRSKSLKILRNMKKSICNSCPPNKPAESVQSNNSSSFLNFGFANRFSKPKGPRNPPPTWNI
# Variants of: B1
# Conditions: with ptn22_human PTPN22, Q9Y2R2
row,Variant,effect of a mutation on the interaction
1,E250Q,disrupting interaction

# Variants of: B1
# Conditions: with ptn22_human PTPN22, Q9Y2R2
# Remark: another data set of the same source
row,Variant,effect of a mutation on the interaction
1,W232A,disrupting interaction
